Laboratory results from PMC10739154, “Reinvestigation of Disulfide-bonded Oligomeric Forms of the Unfolded Protein Response Transducer ATF6” (Cell Structure and Function, 2019).

Assays:
[1] = target: C467A mutant of ATF6α(Δ244)-TAP (human); test: non-reducing SDS-PAGE with immunoblotting; ATF6α-TAP constructs of various lengths at the N-terminus in HCT116 DKO cells; lysates on non-reducing SDS-PAGE; blot with anti-Myc; shows disulfide-bonded forms
[2] = target: C467A mutant of ATF6α(Δ331)-TAP (human); test: as above
[3] = target: C618A mutant of ATF6α(Δ244)-TAP (human); test: as above
[4] = target: the molecule itself; test: non-reducing SDS-PAGE with immunoblotting; one form of ATF6α in the cells; lysis in 1% NP-40 buffer (50 mM Tris/HCl pH 7.5, 150 mM NaCl, 10 mM N-ethylmaleimide), boiled in SDS sample buffer without dithiothreitol; blot with anti-ATF6α; shows disulfide-bonded forms
[5] = target: the molecule itself; test: non-reducing SDS-PAGE with immunoblotting; ATF6α-TAP constructs of various lengths at the N-terminus in HCT116 DKO cells; lysates on non-reducing SDS-PAGE; blot with anti-Myc; shows disulfide-bonded forms

## C467A mutant of ATF6α(Δ244)-TAP (domain or fragment)
[1]
  stoichiometry N: 2

## C467A mutant of ATF6α(Δ331)-TAP (domain or fragment)
[2]
  stoichiometry N: 2

## C618A mutant of ATF6α(Δ244)-TAP (domain or fragment)
[3]
  stoichiometry N: 2

B1: ATF6α (endogenous, HCT116 cells) (natural protein, human (endogenous in HCT116), UniProt P18850 1-670, looked up)
chain: MGEPAGVAGTMESPFSPGLFHRLDEDWDSALFAELGYFTDTDELQLEAANETYENNFDNLDFDLDLMPWESDIWDINNQICTVKDIKAEPQPLSPASSSYSVSSPRSVDSYSSTQHVPEELDLSSSSQMSPLSLYGENSNSLSSAEPLKEDKPVTGPRNKTENGLTPKKKIQVNSKPSIQPKPLLLPAAPKTQTNSSVPAKTIIIQTVPTLMPLAKQQPIISLQPAPTKGQTVLLSQPTVVQLQAPGVLPSAQPVLAVAGGVTQLPNHVVNVVPAPSANSPVNGKLSVTKPVLQSTMRNVGSDIAVLRRQQRMIKNRESACQSRKKKKEYMLGLEARLKAALSENEQLKKENGTLKRQLDEVVSENQRLKVPSPKRRVVCVMIVLAFIILNYGPMSMLEQDSRRMNPSVSPANQRRHLLGFSAKEAQDTSDGIIQKNSYRYDHSVSNDKALMVLTEEPLLYIPPPPCQPLINTTESLRLNHELRGWVHRHEVERTKSRRMTNNQQKTRILQGALEQGSNSQLMAVQYTETTSSISRNSGSELQVYYASPRSYQDFFEAIRRRGDTFYVVSFRRDHLLLPATTHNKTTRPKMSIVLPAININENVINGQDYEVMMQIDCQVMDTRILHIKSSSVPPYLRDQQRNQTNTFFGSPPAATEATHVVSTIPESLQ
notes: ATF6α, endogenous in human colorectal carcinoma-derived HCT116 cells; also called pATF6α(P); source: endogenous, HCT116 WT cell lysate
[4]
  stoichiometry N: 2

B2: EGFP-ATF6α(WT) (natural protein, human, UniProt P18850 1-670, looked up)
chain: MGEPAGVAGTMESPFSPGLFHRLDEDWDSALFAELGYFTDTDELQLEAANETYENNFDNLDFDLDLMPWESDIWDINNQICTVKDIKAEPQPLSPASSSYSVSSPRSVDSYSSTQHVPEELDLSSSSQMSPLSLYGENSNSLSSAEPLKEDKPVTGPRNKTENGLTPKKKIQVNSKPSIQPKPLLLPAAPKTQTNSSVPAKTIIIQTVPTLMPLAKQQPIISLQPAPTKGQTVLLSQPTVVQLQAPGVLPSAQPVLAVAGGVTQLPNHVVNVVPAPSANSPVNGKLSVTKPVLQSTMRNVGSDIAVLRRQQRMIKNRESACQSRKKKKEYMLGLEARLKAALSENEQLKKENGTLKRQLDEVVSENQRLKVPSPKRRVVCVMIVLAFIILNYGPMSMLEQDSRRMNPSVSPANQRRHLLGFSAKEAQDTSDGIIQKNSYRYDHSVSNDKALMVLTEEPLLYIPPPPCQPLINTTESLRLNHELRGWVHRHEVERTKSRRMTNNQQKTRILQGALEQGSNSQLMAVQYTETTSSISRNSGSELQVYYASPRSYQDFFEAIRRRGDTFYVVSFRRDHLLLPATTHNKTTRPKMSIVLPAININENVINGQDYEVMMQIDCQVMDTRILHIKSSSVPPYLRDQQRNQTNTFFGSPPAATEATHVVSTIPESLQ
notes: ATF6α, human, tagged with EGFP at the N-terminus; Constructed in previous studies (Nadanaka et al., 2007; 2004); source: HCT116 ATF6α/β-DKO cells, transfected, in lysate; not shown: EGFP, N-terminal, kept
[4]
  stoichiometry N: 2

B3: EGFP-ATF6α(C467A) (natural protein, human, UniProt P18850 1-670, looked up)
chain: MGEPAGVAGTMESPFSPGLFHRLDEDWDSALFAELGYFTDTDELQLEAANETYENNFDNLDFDLDLMPWESDIWDINNQICTVKDIKAEPQPLSPASSSYSVSSPRSVDSYSSTQHVPEELDLSSSSQMSPLSLYGENSNSLSSAEPLKEDKPVTGPRNKTENGLTPKKKIQVNSKPSIQPKPLLLPAAPKTQTNSSVPAKTIIIQTVPTLMPLAKQQPIISLQPAPTKGQTVLLSQPTVVQLQAPGVLPSAQPVLAVAGGVTQLPNHVVNVVPAPSANSPVNGKLSVTKPVLQSTMRNVGSDIAVLRRQQRMIKNRESACQSRKKKKEYMLGLEARLKAALSENEQLKKENGTLKRQLDEVVSENQRLKVPSPKRRVVCVMIVLAFIILNYGPMSMLEQDSRRMNPSVSPANQRRHLLGFSAKEAQDTSDGIIQKNSYRYDHSVSNDKALMVLTEEPLLYIPPPPAQPLINTTESLRLNHELRGWVHRHEVERTKSRRMTNNQQKTRILQGALEQGSNSQLMAVQYTETTSSISRNSGSELQVYYASPRSYQDFFEAIRRRGDTFYVVSFRRDHLLLPATTHNKTTRPKMSIVLPAININENVINGQDYEVMMQIDCQVMDTRILHIKSSSVPPYLRDQQRNQTNTFFGSPPAATEATHVVSTIPESLQ
notes: ATF6α, human, C467A, tagged with EGFP at the N-terminus; Constructed in previous studies (Nadanaka et al., 2007; 2004); source: HCT116 ATF6α/β-DKO cells, transfected, in lysate; not shown: EGFP, N-terminal, kept
[4]
  stoichiometry N: 2

B4: EGFP-ATF6α(C618A) (natural protein, human, UniProt P18850 1-670, looked up)
chain: MGEPAGVAGTMESPFSPGLFHRLDEDWDSALFAELGYFTDTDELQLEAANETYENNFDNLDFDLDLMPWESDIWDINNQICTVKDIKAEPQPLSPASSSYSVSSPRSVDSYSSTQHVPEELDLSSSSQMSPLSLYGENSNSLSSAEPLKEDKPVTGPRNKTENGLTPKKKIQVNSKPSIQPKPLLLPAAPKTQTNSSVPAKTIIIQTVPTLMPLAKQQPIISLQPAPTKGQTVLLSQPTVVQLQAPGVLPSAQPVLAVAGGVTQLPNHVVNVVPAPSANSPVNGKLSVTKPVLQSTMRNVGSDIAVLRRQQRMIKNRESACQSRKKKKEYMLGLEARLKAALSENEQLKKENGTLKRQLDEVVSENQRLKVPSPKRRVVCVMIVLAFIILNYGPMSMLEQDSRRMNPSVSPANQRRHLLGFSAKEAQDTSDGIIQKNSYRYDHSVSNDKALMVLTEEPLLYIPPPPCQPLINTTESLRLNHELRGWVHRHEVERTKSRRMTNNQQKTRILQGALEQGSNSQLMAVQYTETTSSISRNSGSELQVYYASPRSYQDFFEAIRRRGDTFYVVSFRRDHLLLPATTHNKTTRPKMSIVLPAININENVINGQDYEVMMQIDAQVMDTRILHIKSSSVPPYLRDQQRNQTNTFFGSPPAATEATHVVSTIPESLQ
notes: ATF6α, human, C618A, tagged with EGFP at the N-terminus; Constructed in previous studies (Nadanaka et al., 2007; 2004); source: HCT116 ATF6α/β-DKO cells, transfected, in lysate; not shown: EGFP, N-terminal, kept
[4]
  stoichiometry N: 2

B5: HA-ATF6α(C467A) (natural protein, human, UniProt P18850 1-670, looked up)
chain: MGEPAGVAGTMESPFSPGLFHRLDEDWDSALFAELGYFTDTDELQLEAANETYENNFDNLDFDLDLMPWESDIWDINNQICTVKDIKAEPQPLSPASSSYSVSSPRSVDSYSSTQHVPEELDLSSSSQMSPLSLYGENSNSLSSAEPLKEDKPVTGPRNKTENGLTPKKKIQVNSKPSIQPKPLLLPAAPKTQTNSSVPAKTIIIQTVPTLMPLAKQQPIISLQPAPTKGQTVLLSQPTVVQLQAPGVLPSAQPVLAVAGGVTQLPNHVVNVVPAPSANSPVNGKLSVTKPVLQSTMRNVGSDIAVLRRQQRMIKNRESACQSRKKKKEYMLGLEARLKAALSENEQLKKENGTLKRQLDEVVSENQRLKVPSPKRRVVCVMIVLAFIILNYGPMSMLEQDSRRMNPSVSPANQRRHLLGFSAKEAQDTSDGIIQKNSYRYDHSVSNDKALMVLTEEPLLYIPPPPAQPLINTTESLRLNHELRGWVHRHEVERTKSRRMTNNQQKTRILQGALEQGSNSQLMAVQYTETTSSISRNSGSELQVYYASPRSYQDFFEAIRRRGDTFYVVSFRRDHLLLPATTHNKTTRPKMSIVLPAININENVINGQDYEVMMQIDCQVMDTRILHIKSSSVPPYLRDQQRNQTNTFFGSPPAATEATHVVSTIPESLQ
notes: ATF6α, human, full length, C467A; Constructed in previous studies (Nadanaka et al., 2007; 2004); also called HA-tagged C467A mutant; source: HCT116 ATF6α/β-DKO cells, transfected, in lysate; not shown: HA, N-terminal, kept
[4]
  stoichiometry N: 2

B6: C467A mutant of ATF6α-TAP (natural protein, human, UniProt P18850 1-670, looked up)
chain: MGEPAGVAGTMESPFSPGLFHRLDEDWDSALFAELGYFTDTDELQLEAANETYENNFDNLDFDLDLMPWESDIWDINNQICTVKDIKAEPQPLSPASSSYSVSSPRSVDSYSSTQHVPEELDLSSSSQMSPLSLYGENSNSLSSAEPLKEDKPVTGPRNKTENGLTPKKKIQVNSKPSIQPKPLLLPAAPKTQTNSSVPAKTIIIQTVPTLMPLAKQQPIISLQPAPTKGQTVLLSQPTVVQLQAPGVLPSAQPVLAVAGGVTQLPNHVVNVVPAPSANSPVNGKLSVTKPVLQSTMRNVGSDIAVLRRQQRMIKNRESACQSRKKKKEYMLGLEARLKAALSENEQLKKENGTLKRQLDEVVSENQRLKVPSPKRRVVCVMIVLAFIILNYGPMSMLEQDSRRMNPSVSPANQRRHLLGFSAKEAQDTSDGIIQKNSYRYDHSVSNDKALMVLTEEPLLYIPPPPAQPLINTTESLRLNHELRGWVHRHEVERTKSRRMTNNQQKTRILQGALEQGSNSQLMAVQYTETTSSISRNSGSELQVYYASPRSYQDFFEAIRRRGDTFYVVSFRRDHLLLPATTHNKTTRPKMSIVLPAININENVINGQDYEVMMQIDCQVMDTRILHIKSSSVPPYLRDQQRNQTNTFFGSPPAATEATHVVSTIPESLQ
notes: ATF6α, human, full length, C467A; also called ATF6α(C467A)-TAP; source: HCT116 ATF6α/β-DKO cells, transfected, in lysate
[5]
  stoichiometry N: 2

B7: C618A mutant of ATF6α-TAP (natural protein, human, UniProt P18850 1-670, looked up)
chain: MGEPAGVAGTMESPFSPGLFHRLDEDWDSALFAELGYFTDTDELQLEAANETYENNFDNLDFDLDLMPWESDIWDINNQICTVKDIKAEPQPLSPASSSYSVSSPRSVDSYSSTQHVPEELDLSSSSQMSPLSLYGENSNSLSSAEPLKEDKPVTGPRNKTENGLTPKKKIQVNSKPSIQPKPLLLPAAPKTQTNSSVPAKTIIIQTVPTLMPLAKQQPIISLQPAPTKGQTVLLSQPTVVQLQAPGVLPSAQPVLAVAGGVTQLPNHVVNVVPAPSANSPVNGKLSVTKPVLQSTMRNVGSDIAVLRRQQRMIKNRESACQSRKKKKEYMLGLEARLKAALSENEQLKKENGTLKRQLDEVVSENQRLKVPSPKRRVVCVMIVLAFIILNYGPMSMLEQDSRRMNPSVSPANQRRHLLGFSAKEAQDTSDGIIQKNSYRYDHSVSNDKALMVLTEEPLLYIPPPPCQPLINTTESLRLNHELRGWVHRHEVERTKSRRMTNNQQKTRILQGALEQGSNSQLMAVQYTETTSSISRNSGSELQVYYASPRSYQDFFEAIRRRGDTFYVVSFRRDHLLLPATTHNKTTRPKMSIVLPAININENVINGQDYEVMMQIDAQVMDTRILHIKSSSVPPYLRDQQRNQTNTFFGSPPAATEATHVVSTIPESLQ
notes: ATF6α, human, full length, C618A; also called ATF6α(C618A)-TAP; source: HCT116 ATF6α/β-DKO cells, transfected, in lysate
[5]
  stoichiometry N: 2

B8: HA-ATF6α(WT) (natural protein, human, UniProt P18850 1-670, looked up)
chain: MGEPAGVAGTMESPFSPGLFHRLDEDWDSALFAELGYFTDTDELQLEAANETYENNFDNLDFDLDLMPWESDIWDINNQICTVKDIKAEPQPLSPASSSYSVSSPRSVDSYSSTQHVPEELDLSSSSQMSPLSLYGENSNSLSSAEPLKEDKPVTGPRNKTENGLTPKKKIQVNSKPSIQPKPLLLPAAPKTQTNSSVPAKTIIIQTVPTLMPLAKQQPIISLQPAPTKGQTVLLSQPTVVQLQAPGVLPSAQPVLAVAGGVTQLPNHVVNVVPAPSANSPVNGKLSVTKPVLQSTMRNVGSDIAVLRRQQRMIKNRESACQSRKKKKEYMLGLEARLKAALSENEQLKKENGTLKRQLDEVVSENQRLKVPSPKRRVVCVMIVLAFIILNYGPMSMLEQDSRRMNPSVSPANQRRHLLGFSAKEAQDTSDGIIQKNSYRYDHSVSNDKALMVLTEEPLLYIPPPPCQPLINTTESLRLNHELRGWVHRHEVERTKSRRMTNNQQKTRILQGALEQGSNSQLMAVQYTETTSSISRNSGSELQVYYASPRSYQDFFEAIRRRGDTFYVVSFRRDHLLLPATTHNKTTRPKMSIVLPAININENVINGQDYEVMMQIDCQVMDTRILHIKSSSVPPYLRDQQRNQTNTFFGSPPAATEATHVVSTIPESLQ
notes: ATF6α, human, full length; Plasmid from R. Prywes (Wang et al., 2000); also called HA-tagged WT; HA-tagged ATF6α WT; source: HCT116 ATF6α/β-DKO cells, transfected, in lysate; not shown: HA, N-terminal, kept
[4]
  stoichiometry N: 2
